Where only a bound is given, the exact number is not on record here.

Results on 20 substances are retold here after patent publication US20150152159A1.

One assay concerns the target human growth hormone receptor on IM-9 cells (human) (UniProt P10912).
UniProt P10912, sequence (P10912 19-638): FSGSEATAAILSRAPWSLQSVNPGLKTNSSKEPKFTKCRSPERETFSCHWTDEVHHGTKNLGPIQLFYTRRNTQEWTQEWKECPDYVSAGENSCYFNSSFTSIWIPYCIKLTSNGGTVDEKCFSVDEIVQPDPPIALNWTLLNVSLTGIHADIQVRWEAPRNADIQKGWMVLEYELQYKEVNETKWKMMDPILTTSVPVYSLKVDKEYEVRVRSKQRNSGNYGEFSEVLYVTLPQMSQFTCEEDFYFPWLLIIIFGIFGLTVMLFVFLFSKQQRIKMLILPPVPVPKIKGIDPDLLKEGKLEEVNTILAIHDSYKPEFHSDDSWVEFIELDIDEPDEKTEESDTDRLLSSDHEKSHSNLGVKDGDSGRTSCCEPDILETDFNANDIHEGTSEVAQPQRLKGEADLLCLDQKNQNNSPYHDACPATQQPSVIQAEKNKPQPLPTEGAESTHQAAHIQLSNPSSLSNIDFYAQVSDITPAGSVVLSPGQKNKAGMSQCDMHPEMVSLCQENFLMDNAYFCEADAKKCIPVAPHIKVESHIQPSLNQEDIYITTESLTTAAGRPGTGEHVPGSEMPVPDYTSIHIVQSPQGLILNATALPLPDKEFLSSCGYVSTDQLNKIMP
Assay: not given
In the case of “(His)F92pAF-20K (from UniProt P09466) (ligand)”, the EC50, STAT5 phosphorylation in IM-9 cells (MFI of PE, intracellular phospho-STAT5 staining) is 4.6 nM.

On to “(His)F92pAF-5K (from UniProt P09466) (ligand)”, for which the EC50, STAT5 phosphorylation in IM-9 cells (MFI of PE, intracellular phospho-STAT5 staining) was 1.5 nM. As for (His)F92-pAF-30K (ligand), the EC50, STAT5 phosphorylation in IM-9 cells (MFI of PE, intracellular phospho-STAT5 staining) amounted to 4.1 nM. Consider “hGH F92pAF (from UniProt P01241 27-217) (ligand)”, for which the EC50, STAT5 phosphorylation in IM-9 cells (MFI of PE, intracellular phospho-STAT5 staining) was 0.9 nM.

The target is the same in the next assay.
Assay: not given
This is another data set of the same source.
As for “hGH F92pAF (from UniProt P01241 27-217) (ligand)”, the EC50, STAT5 phosphorylation in IM-9 cells (MFI of PE, intracellular phospho-STAT5 staining) was determined as 1.1 nM.

Another assay has the same target. The assay can be described thus: cell-based or functional assay.
As to “hGH N99pAF (from UniProt P01241 27-217) (ligand)”, the EC50 (nM), STAT5 phosphorylation in IM-9 cells came to 8.5 nM. “rat GH WT (from UniProt P01244 27-216) (ligand)” returned an EC50 (nM), STAT5 phosphorylation in IM-9 cells greater than 200000 nM.

In turn, “hGH P133pAF (from UniProt P01241 27-217) (ligand)” registered an EC50 (nM), STAT5 phosphorylation in IM-9 cells of 1 nM. Substance “hGH K140pAF (from UniProt P01241 27-217) (ligand)” displayed an EC50 (nM), STAT5 phosphorylation in IM-9 cells of 2.7 nM. For “hGH Y103pAF (from UniProt P01241 27-217) (ligand)”, the EC50 (nM), STAT5 phosphorylation in IM-9 cells is 130000 nM. Substance “His-tagged hGH Y143pAF (from UniProt P01241 27-217) (ligand)” had an EC50 (nM), STAT5 phosphorylation in IM-9 cells of 0.8 nM. With “hGH G136pAF (from UniProt P01241 27-217) (ligand)”, the EC50 (nM), STAT5 phosphorylation in IM-9 cells is 1.4 nM. For the substance “hGH F92pAF (from UniProt P01241 27-217) (ligand)”, the EC50 (nM), STAT5 phosphorylation in IM-9 cells came to 0.8 nM. Still for that read-out and setting: the figure for “hGH R134pAF (from UniProt P01241 27-217) (ligand)” is 0.9 nM; for “hGH T135pAF (from UniProt P01241 27-217) (ligand)” it is 0.9 nM; for “hGH Y111pAF (from UniProt P01241 27-217) (ligand)” it is 1 nM. As to “hGH Q91pAF (from UniProt P01241 27-217) (ligand)”, the EC50 (nM), STAT5 phosphorylation in IM-9 cells is 2 nM.

Turning to “hGH S95pAF (from UniProt P01241 27-217) (ligand)”, the EC50 (nM), STAT5 phosphorylation in IM-9 cells stood at 16.7 nM. As to “hGH E88pAF (from UniProt P01241 27-217) (ligand)”, the EC50 (nM), STAT5 phosphorylation in IM-9 cells was determined as 0.9 nM. As for “hGH G131pAF (from UniProt P01241 27-217) (ligand)”, the EC50 (nM), STAT5 phosphorylation in IM-9 cells was found to be 0.8 nM.

In turn, “hGH A155pAF (from UniProt P01241 27-217) (ligand)” yielded an EC50 (nM), STAT5 phosphorylation in IM-9 cells of 1.3 nM.

Consider “hGH F139pAF (from UniProt P01241 27-217) (ligand)”, for which the EC50 (nM), STAT5 phosphorylation in IM-9 cells was 3.3 nM.
